The target of assay [1] is Venus-iLID-CaaX. Nature of the assay: light-induced recruitment of a cytosolic prey to a plasma membrane bait (live-cell spinning disk microscopy); HeLa cells; 1 pulse of 440 nm laser light at 20% for 1 s; change in cytosolic intensity of the prey in percent, measured 20 s after stimulation.
Assay [2] deals with Lck-mTurquoise2-iLID. The assay is described as above.
The target of assay [3] is Venus-iLID-CaaX. Briefly: light-induced recruitment of a cytosolic prey to a plasma membrane bait (live-cell confocal microscopy); HeLa cells, 37°C; photo-activation with 488 nm laser light (1% intensity) every 2.5 s for 2 min; normalized membrane to cytosol intensity ratio of the prey; t½ ON and OFF from a mono-exponential fit to the mean.

Take “SspB-mScarlet-I (from UniProt P0AFZ3 1-165) (natural protein)”: in assay [1], the mean change in cytosolic intensity (recruitment efficiency) was 25.5%. The median change in cytosolic intensity (recruitment efficiency) in assay [2] was 36.7%. In assay [3], the t½ OFF of recruitment (after 488 nm light) turned out to be 20.3 s and the t½ ON of recruitment (488 nm light) came to 5.14 s.

These data come from PMC10393062.
